T1: MAGEA1 peptide on HLA-C*07:02 (human)
T1 peptide: VRFFFPSL


Molecular target: T1, MAGEA1 peptide on HLA-C*07:02
Test: killing

Row | Binder | binding result
1 | MAGEA1 TCR 32-39 (TCR, V domains shown) Valpha: DQQVKQNSPSLSVQEGRISILNCDYTNSMFDYFLWYKKYPAEGPTFLISISSIKDKNEDGRFTVFLNKSAKHLSLHIVPSQPGDSAVYFCAASAQNNDMRFGAGTRLTVKP Vbeta: NAGVMQNPRHLVRRRGQEARLRCSPMKGHSHVYWYRQLPEEGLKFMVYLQKENIIDESGMPKERFSAEFPKEGPSILRIQQVVRGDSAAYFCASSPSYEQYFGPGTRLTVT | recognises
2 | MAGEA1 TCR 32-41 (TCR, V domains shown) Valpha: TQLLEQSPQFLSIQEGENLTVYCNSSSVFSSLQWYRQEPGEGPVLLVTVVTGGEVKKLKRLTFQFGDARKDSSLHITAAQPGDTGLYLCAGDESISYGKLTFGQGTILTVHP Vbeta: DAGVIQSPRHEVTEMGQEVTLRCKPISGHDYLFWYRQTMMRGLELLIYFNNNVPIDDSGMPEDRFSAKMPNASFSTLKIQPSEPRDSAVYFCASSFLGWNEKLFFGSGTQLSVL | recognises
